In this assay the target is ΔN−3 gp17.1 (bacteriophage SPP1) (UniProt O48449). The assay is described as follows: cryo-EM structure; helical reconstruction of polymerized ΔN−3 gp17.1 tubes, 20 mM Tris-HCl pH 7.4 in place of phosphate; the most straight tubes selected; C6, rise 38.46 Å, twist 21.89°; atomic model by hybrid calculation (ISD) with solid-state NMR restraints from gp17.1 tubes.

The text below walks through data of PMC7666168.

As a reminder, the stoichiometry N is the number of molecules, sites or subunits per partner or assembly.

As to “ΔN−3 gp17.1 (from UniProt O48449 1-264) (natural protein)”, the stoichiometry N was 6.
